Assay results from the supplement of paper PMC7877785.
± gives the uncertainty stated by the source.

Test: self-splicing fitness, log relative to wild type (ln ratio); higher = more splicing; Tetrahymena group I intron in knt gene, E. coli kanamycin selection, DiMSum; sequences stand for … in CUCUCU…GGAGGGAAAAGUUAUCAGGCAUGCACCUGGUAGCUAGUCUUUAAACCAAUAGAUUGCAUCGGUUUAAAAGGCAAGACCGUCAAAUUGCGGGAAAGGGGUCAACAGCCGUUCAGUACCAAGUCUCAGGGGAAACUUUGAGAUGGCCUUGCAAAGGGUAUGGUAAUAAGCUGACGGACAUGGUCCUAACCACGCAGCCAAGUCCUAAGUCAACAGAUCUUCUGUUGAUAUGGAUGCAGUUCACAGACUAAAUGUCGGUCGGGGAAGAUGUAUUCUUCUCAUAAGAUAUAGUCGGACCUCUCCUUAAUGGGAGCUAGCGGAUGAAGUGAUGCAACACUGGAGCCGCUGGGAACUAAUUUGUAUGCGAAAGUAUAUUGAUUAGUUUUGGAGUACUCGUGGUCG
Procedure, shortened: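 Pooled colonies went to amplicon sequencing on an Illumina HiSeq 2500 after six replicate transformations. The plates were LB agar with 100 μg/mL carbenicillin, 50 μM IPTG and 0.2% rhamnose, with or without 25 μg/mL kanamycin, incubated overnight at 37°C or 30°C. The E. coli BL21(DE3) library had all eight P1ex-region intron nucleotides randomised, the intron placed in the knt kanamycin-resistance gene on pET-22b(+). DiMSum fitness is the error-weighted combination of replicate fold changes, kanamycin against none, normalised to wild type.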

## ACGGAGCAAUAUUACGCAUG
30 °C
  self-splicing fitness (ln): -2.65 ± 0.2
37 °C
  self-splicing fitness (ln): -2.28 ± 0.23

## ACGGAGCAAUAUUACGCCGA
30 °C
  self-splicing fitness (ln): -1.94 ± 0.25
37 °C
  self-splicing fitness (ln): -1.49 ± 0.19

## ACGGAGCAAUAUUACGCGCA
30 °C
  self-splicing fitness (ln): -1.39 ± 0.23
37 °C
  self-splicing fitness (ln): -1.64 ± 0.17

## ACGGAGCAAUAUUACGCGUG
30 °C
  self-splicing fitness (ln): -2.24 ± 0.12
37 °C
  self-splicing fitness (ln): -0.943 ± 0.11

## ACGGAGCAAUAUUACGCUCG
30 °C
  self-splicing fitness (ln): -1.67 ± 0.14
37 °C
  self-splicing fitness (ln): -1.01 ± 0.16

## ACGGAGCAAUAUUACGGAAG
30 °C
  self-splicing fitness (ln): -4.44 ± 0.46
37 °C
  self-splicing fitness (ln): -1.89 ± 0.46

## ACGGAGCAAUAUUACGGAGA
37 °C
  self-splicing fitness (ln): -2.01 ± 0.46

## ACGGAGCAAUAUUACGGCGU
30 °C
  self-splicing fitness (ln): -2.38 ± 0.2
37 °C
  self-splicing fitness (ln): -1.48 ± 0.19

## ACGGAGCAAUAUUACGGGCA
30 °C
  self-splicing fitness (ln): -2.06 ± 0.42

## ACGGAGCAAUAUUACGGGCC
30 °C
  self-splicing fitness (ln): -2.53 ± 0.48
37 °C
  self-splicing fitness (ln): -1.06 ± 0.4

## ACGGAGCAAUAUUACGGGUC
37 °C
  self-splicing fitness (ln): -2.58 ± 0.38

## ACGGAGCAAUAUUACGUAUU
30 °C
  self-splicing fitness (ln): -3.44 ± 0.48

## ACGGAGCAAUAUUACGUCCC
30 °C
  self-splicing fitness (ln): -1.47 ± 0.25
37 °C
  self-splicing fitness (ln): -0.893 ± 0.2

## ACGGAGCAAUAUUACGUGUU
30 °C
  self-splicing fitness (ln): -3.23 ± 0.13
37 °C
  self-splicing fitness (ln): -2.56 ± 0.16

## ACGUAGCAAUAUUACGAGGC
37 °C
  self-splicing fitness (ln): -2.11 ± 0.39

## ACGUAGCAAUAUUACGAUAU
30 °C
  self-splicing fitness (ln): -1.39 ± 0.1
37 °C
  self-splicing fitness (ln): -1.04 ± 0.15

## ACGUAGCAAUAUUACGCGAG
30 °C
  self-splicing fitness (ln): -3.43 ± 0.19
37 °C
  self-splicing fitness (ln): -0.232 ± 0.11

## ACGUAGCAAUAUUACGCGGU
30 °C
  self-splicing fitness (ln): -3.63 ± 0.16
37 °C
  self-splicing fitness (ln): -2.33 ± 0.17

## ACGUAGCAAUAUUACGCGUU
37 °C
  self-splicing fitness (ln): -2.49 ± 0.24

## ACGUAGCAAUAUUACGCUCU
30 °C
  self-splicing fitness (ln): -0.479 ± 0.12
37 °C
  self-splicing fitness (ln): -0.414 ± 0.15

## ACGUAGCAAUAUUACGCUGU
30 °C
  self-splicing fitness (ln): -2.65 ± 0.17
37 °C
  self-splicing fitness (ln): -2.34 ± 0.21

## ACGUAGCAAUAUUACGCUUG
30 °C
  self-splicing fitness (ln): -1.26 ± 0.083
37 °C
  self-splicing fitness (ln): -1.28 ± 0.093

## ACGUAGCAAUAUUACGGAGA
30 °C
  self-splicing fitness (ln): -3.36 ± 0.44
37 °C
  self-splicing fitness (ln): -2.08 ± 0.24

## ACGUAGCAAUAUUACGGCUA
30 °C
  self-splicing fitness (ln): -1.9 ± 0.12
37 °C
  self-splicing fitness (ln): -2.26 ± 0.18

## ACGUAGCAAUAUUACGGGGC
30 °C
  self-splicing fitness (ln): -4.11 ± 0.14
37 °C
  self-splicing fitness (ln): -2.73 ± 0.12

## ACGUAGCAAUAUUACGGGUG
30 °C
  self-splicing fitness (ln): -2.67 ± 0.086
37 °C
  self-splicing fitness (ln): -1.18 ± 0.085

## ACGUAGCAAUAUUACGGUCG
30 °C
  self-splicing fitness (ln): -1.23 ± 0.093
37 °C
  self-splicing fitness (ln): -0.666 ± 0.12

## ACGUAGCAAUAUUACGGUCU
30 °C
  self-splicing fitness (ln): -0.728 ± 0.078
37 °C
  self-splicing fitness (ln): -0.139 ± 0.097

## ACGUAGCAAUAUUACGUCCG
30 °C
  self-splicing fitness (ln): -1.63 ± 0.12
37 °C
  self-splicing fitness (ln): -0.705 ± 0.11

## ACGUAGCAAUAUUACGUCGC
30 °C
  self-splicing fitness (ln): -3.64 ± 0.35
37 °C
  self-splicing fitness (ln): -1.91 ± 0.27

## ACGUAGCAAUAUUACGUUUA
30 °C
  self-splicing fitness (ln): -2.63 ± 0.15
37 °C
  self-splicing fitness (ln): -2.73 ± 0.17

## ACUAAGCAAUAUUACGAACA
30 °C
  self-splicing fitness (ln): -1.86 ± 0.18
37 °C
  self-splicing fitness (ln): -0.417 ± 0.19

## ACUAAGCAAUAUUACGAAUC
30 °C
  self-splicing fitness (ln): -3.41 ± 0.21
37 °C
  self-splicing fitness (ln): -1.05 ± 0.17

## ACUAAGCAAUAUUACGACAC
30 °C
  self-splicing fitness (ln): -0.549 ± 0.1
37 °C
  self-splicing fitness (ln): -0.813 ± 0.13

## ACUAAGCAAUAUUACGAUCU
30 °C
  self-splicing fitness (ln): -0.809 ± 0.092
37 °C
  self-splicing fitness (ln): 0.314 ± 0.1

## ACUAAGCAAUAUUACGAUGC
30 °C
  self-splicing fitness (ln): -1.53 ± 0.091
37 °C
  self-splicing fitness (ln): -0.792 ± 0.11

## ACUAAGCAAUAUUACGCAGU
30 °C
  self-splicing fitness (ln): -4.72 ± 0.28
37 °C
  self-splicing fitness (ln): -3.25 ± 0.46

## ACUAAGCAAUAUUACGCAUC
30 °C
  self-splicing fitness (ln): -3.13 ± 0.28
37 °C
  self-splicing fitness (ln): -1.54 ± 0.2

## ACUAAGCAAUAUUACGCCCA
30 °C
  self-splicing fitness (ln): -0.779 ± 0.11
37 °C
  self-splicing fitness (ln): -0.482 ± 0.13

## ACUAAGCAAUAUUACGCCGA
30 °C
  self-splicing fitness (ln): -1.86 ± 0.18
37 °C
  self-splicing fitness (ln): -0.197 ± 0.16

## ACUAAGCAAUAUUACGCCUC
30 °C
  self-splicing fitness (ln): -2.41 ± 0.21
37 °C
  self-splicing fitness (ln): -1.64 ± 0.34

## ACUAAGCAAUAUUACGCGAG
30 °C
  self-splicing fitness (ln): -1.77 ± 0.082
37 °C
  self-splicing fitness (ln): -0.355 ± 0.089

## ACUAAGCAAUAUUACGCGAU
30 °C
  self-splicing fitness (ln): -2.98 ± 0.15
37 °C
  self-splicing fitness (ln): -1.82 ± 0.2

## ACUAAGCAAUAUUACGCGUC
30 °C
  self-splicing fitness (ln): -4.43 ± 0.41
37 °C
  self-splicing fitness (ln): -2.1 ± 0.22
